The nature of the data set: yeast display, Sf9 membrane polyspecificity reagent, FACS + sequencing; frameworks hold sequencing errors. The method, boiled down: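 A nanobody's polyreactivity label depends on the gate it was sorted from. Yeast display cells were stained with 10% biotinylated, detergent-solubilized Sf9 membrane reagent for 1 hour at 4 °C, enriched on streptavidin microbeads and sorted by FACS. The low and high (top ~1%) gates were set on anti-HA fluorescence for expression and streptavidin fluorescence for reagent binding.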
Turning to “QVQLVESGGGLVQAGGSLRLSCAASGSIFYVNGMGWYRQAPGKERELVARITLSGTSTYYADSVKGRFTISRDNAKNTVYLQRNSLKPEDPAVYYCAAPYFTYGQDEDEYWGQGTQGTVSS”, the “polyreactivity (PSR sort gate)” value is on record as “low polyreactivity”.
Next, “QVQLVESGGGLVQAGGSLRLSCAASGFTFYYNAMGGYRQAPGKEREFVAGITRTGGSTYYADSVKGRFTISRDNAMNTVYLQIKSLKPEDTAVYYCAATHYYYGTSRYDYWGQVTQVTVSS”: “high polyreactivity”; “QVQLVESGGGLVQAGGSLRLSCAASGSIFWYYAMGWYRQAPGKERELVARITFSGSRTHYADSVKGRFTISRDNAKNTVYLQMNSLKPEDTSVYYCATDTVYGNDYWGQGTQVTVSS”: “low polyreactivity”.
Next, “QVQLVESGGGLVQAGGSLRLSCAASGRILYHYAMGWYRQAPGKERELVAAITFSGDTTYYADSVKGRFTISRDNAKNTVYLQMNSLKPEDTAVYYCAADDYYLGYEYWGQGTQVTVSS”: “high polyreactivity”.
As for “QVQLVESGGGLVQAGGSLRLSCAASGTFHWYAMGWYIQAPGKEMELVAAITGSGGNTYYADSVKGRFTISRDNAKNTVYLQMNSLKPEDTAVYYCAARIYTWSVEYTGYGYWGQGTQVTVSS”, the “polyreactivity (PSR sort gate)” value was “high polyreactivity”.
To “QVQLVESGGGLVQAGGSLRLSCAASGSIFEYNAMGWYRQAPGKERELVAAISRSGGSTYYADSVKGRFTISRDNAKNTVYLQMISLKPEDTAVYYCAARSPRYYRDFGYWGQGTQVTVSS” belongs “high polyreactivity”; to “QVQLVESGGGLVQAGGSLRLSSAASGSIFYGYAMGWYRQAPGKERELVATISWSAGSTYYADSVKGRFTISRDNAKTTVYLQMNSLKPEDTAVYYCATRVFTSSYRYRYGYWGQGTQVTVSS”, “high polyreactivity”; to “QVQLVESGGGLVQAGGSLRLSCAASGLIFGYNAMGWYRQAPGKEREFVAGISSSGVSTYYADSVKGRFTISRDNAKNTVYLQMNSLKPEDTAVYYCAADTVDLEFDYWGQGTQVTVSS”, “low polyreactivity”.
To “QVQLVESGGGIVQAGGSLRLSCAASGSTFLTNTMGWYRQAPGTESELVAAITLRGGRTYYADSVKGRFTISRDNAKNTVYLQMNSLKPEDTAVYYCNARNYYYPSDRDYWGQGTQVTGSS” belongs “low polyreactivity”; to “QVQLVESGGGLVQAGGSLRLSCAASGRTFAINAMGGYRQAPGKERELVATIDRSGGSTYYADSVKGRFTISRDNAKNTVYLQMNRLKPEDTAVYYCAADYPVRSYDYWGQGTQVTVSS”, “low polyreactivity”; to “QVQLVESGGGLDQAGGSLRLTCAASGRTIGSYAMGWYRQAPGKERELVAAISYSGGSTYYADSVKGRFTISRDNAKNTVYLQMNSLKPEDTAVYYCAKSWRYSIIQSYRAGYNYWGQGTQVTVSS”, “high polyreactivity”.
To “QVQLVESGGGLVQAGGSLRLSCAASGFTFSYYAMGWYRQSPGKERELVASISRSGNTYYADSVKGRFTISRDNAKNTVYLQMKSLKPEDTAVYYCAAKRKSYYSYNFDYWGQGTQVTVSS” belongs “high polyreactivity”; to “QVQLVESGGGLVQAGGSLRLSCAASGFIFSYYTMGWYRQAPGKERELVAAISRNGGSTYYADSVKGRFTISRDNAKNTVYLQMNSLKPEDTAVYYCAKRVFNYQRYDYWGQGTQVTVSS”, “high polyreactivity”.
Turning to “QVQLVESGGGLVQAGGSLRLSCAASGSIFQFYAMGWYRQAPGKERELVADISYGGSTYYADSVKGRFTISRDNAKKTVYLQMNSLKPEDTAVYYCAAAAYWWVKGFGSYYWGQGTQVTVSS”, the “polyreactivity (PSR sort gate)” value is listed as “high polyreactivity”.
Next, “QVQLEESGGGLVQAGGSLRLSCAASGRTFGVYAMGWYRQAPGKERELVAGIRWRGGSTYYADSVKGRFTISRDNAKNTVYLQMNSLKPEDTAVYYCAADVYLVKYDYWGQGTQVTVSS”: “low polyreactivity”; “QVQLVESGGGLVQAGGSLRLSCAASGTNVKGWYRQAPGKERELVAAISGSGGSTYYADSVKGRFTISRDNAKNTVYLQMNSLKPEDTAVYYCAADSIQYTARPYDYWGQVTQVTVSS”: “low polyreactivity”; “QVQLVESGGGLVQAGGSLRLSCAASGRTFIYYAMGWSRQAPGKERELVAGISRNGGRTYYADSVKGRFTISRDNAKNTVYLQMNSLKPEDTAVYYCNAYPPSRHDYLGQGTQVTVSS”: “high polyreactivity”.
In the case of “QVQLVESGGGLVQAGGSLRLSCAASGRIFVYYAMGWYRQAPGKERELVAAITYSVDSTYYADSVKGRFTISRDNAKNTVYLQMNSLKPEDTAVYDCATDVDWAYGYQYEYWGQGTQVTVSS”, the “polyreactivity (PSR sort gate)” value is given as “low polyreactivity”.
In the case of “QVQLVESGGGLVQAGGSLRLSCAASGSIFWYYAMGWYRQAPGKERELVAAISGSGTRTYYADSVKGRFTISRDNAKNTVYLQMNSLKPEDTAVYYCAATAVRQSGRYLSSSGYDYWGQGTQVTVSS”, the “polyreactivity (PSR sort gate)” value was “high polyreactivity”.
Next, “QVQLVESGGGLVQAGGSLRLSCAASGFTFAYNAMGWYRQAPGKERELDAAINSSGGTTYYADSVKGRFTISRDNAKNTVYLQMNSLKPEDTAVYYCAAVYSTSYSGSFPGYDYWGQGTQVTVSS”: “low polyreactivity”; “QVQLVESGGGLVQAGGSLRLSCAASGYSLYANAKGWSRQAPGKERELVASITFGDDSTYYADSVKGRFTISRDNAKNTVDLQMNSLKPEDTAVYYCNADHKVEVEDDYCGQGTQVTVSS”: “low polyreactivity”.
To “QVQLVESGGGLDQAGGSLRLSCAASGSTFQAYARGWYRQAPGKERELVAAISRRSGSTYYADSVKGRFTISRDNAKNTVYLQMNSLKPEDTAVYYCNAGSRRPYDYWGQGTQVTVSS” belongs “low polyreactivity”; to “QVQLVESGGGLVQAGGSLRLSCAASGSTFGYNAMGWYRQAPGKERELVAAISFSSGRTYYADSVKGRFTISRDNAKNTVYLQMNSLKPEDTAVYYCAALQYRRRPYGAVERYDYWGQGTQVTVSS”, “high polyreactivity”.
Next, “QVQVVESGGGLVQAGGSLRLSCAASGRTYRSNAMGWYRQAPGKERELVAAIRTSGGSTYYADSVKGRFTISRDNAKNTVYLQMNSLKPEDTAVYYCNAELRDLEFDYWGQGTQVTVSS”: “low polyreactivity”; “QVQLVESGGGLVQAGGSLRLSCAASGSIFDVYVMGWYRQAPGKERELVAAITSTGSTNYADSVKGRFTISRDNAKNTVYLQMNSLKPEDTAVYYCATDGVYKHIQVLYDYWGQGTQVTVSS”: “low polyreactivity”; “QVQLVESGGGLVQAGGSLRLSCAASGRTFVRNAMGWYRQAPGKERELVAAISGSAGRTYYADSVKGRFTISRDNAKNTVYLQMNSLKPEDTAVYYCAKDTTVYGYYYWGQGTQVTVSS”: “high polyreactivity”.
In the case of “QVQLVESGGGLVQAGGSLRLSCAASGFTFQINTMGWYRQAPGKERELVAAINYSGGSTYYADSVKGRFTISRDNAKNTDYLQMNSLKPEDTAVYYCATDHYRNPWRWYRYGYWGQGTQVTVSS”, the “polyreactivity (PSR sort gate)” value is recorded as “low polyreactivity”.
Next, “QVQLVESGGGLVQAGGSLRLSCAASGFTFGRNAMGWYRPAPGKEMELDATISKSGGSTYYEDSVKGRFTISRDNAKNTVYLQMYSLKPEDSAVYYCAARSRRLPGDYWGQATQVTVSS”: “low polyreactivity”; “QVLLVESGGGLVQAGGTLRLSCADSGFTFVTYGMGWYRQEPGKERELVARISSSSTNYADSVKGRFTISRDNAKNTVYLQMKSLKPEDTEVYYCAAVHYRWWYRSAYDFWGQGTQVTVSS”: “low polyreactivity”.
As to “QVQLVESGGGLVQAGGSLRLSCAASGRIFYHNTMGWYRQAPGKERELVAAITTSGSTYYADSVKGRFTISRDNAKNSVYLQMNSLKPEDTSVYYCAARALRWFNYWGQGTQVTVSS”, the “polyreactivity (PSR sort gate)” value was “high polyreactivity”.
Next, “QVQLVESRRGLVQAGGSLRLSCAGSGRIVSDYAMGWYRQAPGKERELVATITSGDSTNYADSVKGRFTISRDNAKNTVYLQMNSQKPEDTAVYYCNADRFADYDYWGQGTQVTVSS”: “low polyreactivity”; “QVQLVESGGGLVQAGGSLRLSCAASGSNFNRYAMGWYRQAPGKERELVAAISRSGGRTYYADSVKGRFTISRDNAKNTVYLQMNSLKPEDTAVYYCAAGGRWFYIDDDWGQGTQVTVSS”: “high polyreactivity”.
To “QVQLVESGGGLVQSGGSLRLSCAASGSILKPYAMGWYRQAPGKERELVAAIRSSGGRTNYADSVKGRFTISRDNAKNSVYLQMNSLKPEDTAVYYCAAGYVSYWYYRYDYWGQGTQVTVSS” belongs “high polyreactivity”; to “QVQLVESGGGLVQAGGSLRLSCAASGSIFTWNGMGWYRQAPGKERELVAAISNGASTNYAESVKGRFTISRDNAKNTVYLQMNSLKPEDTAVYYCAAKSTGRYDYWGQGTQVTVSS”, “low polyreactivity”; to “QVQLVESGGGLVQAGGSLRLSCAASGSTFYWYAMGWYRQAPGKERELVAAITYSSGRTYYADSVKGRFTISRDNAKNTVYLQMNSLKPEDTAVYYCGWSALNGYDYWGQGTQVTVSS”, “high polyreactivity”.
Next, “QVQLVESGGGLVQAGGSLRLSCAASGNTFIYYGMGWYRQAPGKERELVAAITWSGGSTYYADSVKGRFTISRDNAKNTVYLQMNSLKPEETAVYYCAKFTHNYYYWGQGTQVTVSS”: “high polyreactivity”.
In the case of “QVQLVESGGGLVQAGGSLRLSCAASGSTFHPNAMGWCRQAPRKQRELFAAITWSTSVTYYADSVKGRFTISRDNAKNTVFLQMISLKPEDSAVYYCNAGYMLDSFRYDHWGQCTQVTVSS”, the “polyreactivity (PSR sort gate)” value is on record as “low polyreactivity”.
Next, “QVQLVESGGGLVQAGGSLRLSCAASGITFDYYVMGWYRQAPGKERELVAAISWSGGTTYYADSVKGRFTISRDYAKNTVYLQMNSLKPEDTAVYYCNAEHTGSFYGGYPWEMEYWGQGTQVTVSS”: “low polyreactivity”; “QVQLVESGGGLVQAGGSLRLSCAASGSISGLYAMGWYRQATGKERELVAAITFRDGTTSYADSVKGRFTISRDNAKNTVYLQMNSLKPEDTAVYYCAAVDRDSNSSVPTLDHWGQGTQVTVSS”: “low polyreactivity”; “QVQLVESGGGLVQAGGSLRLSCAASGFIFRGNAMGWYRQAPGKERELVAAISKSGGRTYYADSVKGRFTISRDNAKNTVYLQMNSLKPEDTAVYYCNVLRLGLGRESDSWGQGTQVTVSS”: “high polyreactivity”.
As for “QVQLVESGGGLVQAGGSLRLSCAASGRTFGRNAMGWYRQAPGKERELVAAISTSGSRTYYADSVKGRFTISRDNAKNTVYLQMNSLKPEDTAVYYCNAYGVSRGSYGTRGYWGQGTQVTVSS”, the “polyreactivity (PSR sort gate)” value was “high polyreactivity”.
